In US20190048094A1:

Experiments:
[1] = target: OVA peptide SIINFEKL-MHC complex (OVA257-264 presented in the context of MHC class I H-2K^b) on tumor cells (chicken); assay: cell-based or functional assay
[2] = target: SIINFEKL-specific TCR on CD8+ T-cells of OT-I transgenic mice; assay: flow cytometry, dextramer staining of OT-I activated CD8+ T-cells

Substance	IL-2 (pg/ml) from B3Z T-cells; B16F10 tumor cells, OVA 0.25 mg/ml [1] [pg/mL]	IL-2 (pg/ml) from B3Z T-cells; B16F10 tumor cells, OVA 0.5 mg/ml [1] [pg/mL]	IL-2 (pg/ml) from B3Z T-cells; B16F10 tumor cells, OVA 1.0 mg/ml [1] [pg/mL]	IL-2 (pg/ml) from B3Z T-cells; B16F10 tumor cells, OVA 2.5 mg/ml [1] [pg/mL]	IL-2 (pg/ml) from B3Z T-cells; KP LUN31 tumor cells, OVA 0.125 mg/ml [1] [pg/mL]	IL-2 (pg/ml) from B3Z T-cells; KP LUN31 tumor cells, OVA 0.25 mg/ml [1] [pg/mL]	IL-2 (pg/ml) from B3Z T-cells; KP LUN31 tumor cells, OVA 0.5 mg/ml [1] [pg/mL]	IL-2 (pg/ml) from B3Z T-cells; KP LUN31 tumor cells, OVA 1.0 mg/ml [1] [pg/mL]	IL-2 (pg/ml) from B3Z T-cells; KP LUN31 tumor cells, OVA 2.5 mg/ml [1] [pg/mL]	IL-2 (pg/ml) from B3Z T-cells; LL2 tumor cells, OVA 2.5 mg/ml [1] [pg/mL]	IL-2 (pg/ml) from B3Z T-cells; LL2 tumor cells, OVA 5.0 mg/ml [1] [pg/mL]	IL-2 (pg/ml) from B3Z T-cells; LL2 tumor cells, OVA 10 mg/ml [1] [pg/mL]	IL-2 (pg/ml) from B3Z T-cells; MC38 tumor cells, OVA 2.5 mg/ml [1] [pg/mL]	IL-2 (pg/ml) from B3Z T-cells; MC38 tumor cells, OVA 5.0 mg/ml [1] [pg/mL]	IL-2 (pg/ml) from B3Z T-cells; MC38 tumor cells, OVA 10 mg/ml [1] [pg/mL]	percent of cells positive [2] [%]
T-cell receptor (TCR) of the T-cell hybridoma B3Z86/90.14 (B3Z)	22	76	323	589	22	68	247	483	913	11	26	33	54	138	338	–
H-2 Kb SIINFEKL-APC conjugated dextramer (Immudex) (from UniProt P01901 22-369) (peptide-MHC)	–	–	–	–	–	–	–	–	–	–	–	–	–	–	–	100
